Laboratory results from patent US20240100159A1, “USE OF IL-7R-ALPHA-GAMMA AGONIST PEPTIDES IN CELL MANUFACTURING” (MEDIKINE, INC., priority 2022, published 2024).
Ends that are not written are not given here.

T1: hu-IL-7Rγc subunit (human), P31785
T1 chain: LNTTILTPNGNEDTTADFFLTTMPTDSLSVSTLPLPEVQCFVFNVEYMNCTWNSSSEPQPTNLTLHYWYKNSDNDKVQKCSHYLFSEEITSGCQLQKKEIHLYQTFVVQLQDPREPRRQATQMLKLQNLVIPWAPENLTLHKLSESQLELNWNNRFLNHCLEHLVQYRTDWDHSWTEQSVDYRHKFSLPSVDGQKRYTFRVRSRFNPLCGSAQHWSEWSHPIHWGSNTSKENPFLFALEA

T2: hu-IL-7Rγc subunit (human, UniProt P31785 23-262, limits assumed)
T2 construct: also called human Rγc subunit; common γc receptor
T2 sequence (looked up): T1 chain


Biological target: T1, hu-IL-7Rγc subunit (human), P31785

| Binder | IC50 [µM] |
| --- | --- |
| VSCQEWDGVELCWVDGDLAA (modifications not checked) [SEQ ID NO 288] | < 100 |
| IECEEWRGVELCWQ (modifications not checked) [SEQ ID NO 247] | < 100 |
| AVCQDWYGVELCWCMQDILD (modifications not checked) [SEQ ID NO 314] | < 100 |
| TANQTVVECQVWGGVELCWQ (modifications not checked) [SEQ ID NO 253] | < 100 |
| DVVCQNWEGVDLCWH (modifications not checked) [SEQ ID NO 262] | < 100 |
| GLEIACEDWYGVELCWLRRA (modifications not checked) [SEQ ID NO 290] | < 100 |
| GYGVLCQEWQGVELCWPVQREAGV (modifications not checked) [SEQ ID NO 291] | < 100 |
| SAGRQEVVCQDWNGVELCWI (modifications not checked) [SEQ ID NO 263] | < 100 |
| LNRSVWIECEEYEGVELCWL (modifications not checked) [SEQ ID NO 280] | < 100 |
| TLGRTVVECQDWGGVELCWQ (modifications not checked) [SEQ ID NO 267] | < 100 |
| DFERSYVVCQDWDGVELCWI (modifications not checked) [SEQ ID NO 257] | < 100 |
| EQQVVCQEWNGVELCWIEAG (modifications not checked) [SEQ ID NO 310] | < 100 |
| IMCQEWDGVELCWLERDKAN (modifications not checked) [SEQ ID NO 289] | < 100 |
| PVEVRCQEWEGVELCWVVGI (modifications not checked) [SEQ ID NO 304] | < 100 |
| SVEVVCEEWHGVELCWPVFI (modifications not checked) [SEQ ID NO 318] | < 100 |
| RLGVECQEWEGVDLCWISAF (modifications not checked) [SEQ ID NO 300] | < 100 |
| IVCEEYNGVELCWVETSVKP (modifications not checked) [SEQ ID NO 309] | < 100 |
| RPEVVCQEWEGVELCWISPL (modifications not checked) [SEQ ID NO 299] | < 100 |
| RWAVSCQDWQGIELCWPEWD (modifications not checked) [SEQ ID NO 319] | < 100 |
| DRQVVCEEWDGVELCWIEES (modifications not checked) [SEQ ID NO 297] | < 100 |
| DVVCQNWDGVDLCWH (modifications not checked) [SEQ ID NO 266] | < 100 |
| IWGRTVVECQDWEGVELCWQ (modifications not checked) [SEQ ID NO 249] | < 100 |
| KYIVECQEWGGVELCWPEMV (modifications not checked) [SEQ ID NO 306] | < 100 |
| INCQTWNGVELCWVDEGLYQ (modifications not checked) [SEQ ID NO 294] | < 100 |
| ERPRSFIECQEWEGVELCWL (modifications not checked) [SEQ ID NO 272] | < 100 |
| SAPERWVECEDWQGVELCWV (modifications not checked) [SEQ ID NO 259] | < 100 |
| HEAREVVVCQDWYGVELCWQ (modifications not checked) [SEQ ID NO 251] | < 100 |
| SPSIVCEEWAGVELCWVDYS (modifications not checked) [SEQ ID NO 313] | < 100 |
| VECQEWGGVELCWC (modifications not checked) [SEQ ID NO 254] | < 100 |
| PEGREVVVCRDWYGVELCWQ (modifications not checked) [SEQ ID NO 248] | < 100 |

Continued, values first:

| IC50 [µM] | Binder |
| --- | --- |
| < 100 | PYGVVCQDWAGVELCWVENR (modifications not checked) [SEQ ID NO 292] |
| < 100 | HSTVICQDWDGVELCWIEND (modifications not checked) [SEQ ID NO 316] |
| < 100 | KSQVECQDWEGVELCWVVSE (modifications not checked) [SEQ ID NO 285] |
| < 100 | GNDDSYIVCEEWKGVELCWI (modifications not checked) [SEQ ID NO 278] |
| < 100 | KITVECQDWDGVELCWPTWI (modifications not checked) [SEQ ID NO 286] |
| < 100 | GPEVVCEEFNRVELCWVEYN (modifications not checked) [SEQ ID NO 305] |
| < 100 | TAEVVCQEWDGVELCWIEVL (modifications not checked) [SEQ ID NO 312] |
| < 100 | VECEEWGGVELCWLADEVMW (modifications not checked) [SEQ ID NO 315] |
| < 100 | VVCQEWEGVELCWQTGPGAHA (modifications not checked) [SEQ ID NO 308] |
| < 100 | IVCEEWRGVELCWL (modifications not checked) [SEQ ID NO 256] |
| < 100 | IVCEDWRGVELCWI (modifications not checked) [SEQ ID NO 269] |
| < 100 | TWNMSELECQDWNGVEICWH (modifications not checked) [SEQ ID NO 277] |
| < 100 | GDRPKEVVCEDWKGVELCWI (modifications not checked) [SEQ ID NO 271] |
| < 100 | QLGVECQNWRGVELCWVSEI (modifications not checked) [SEQ ID NO 311] |
| < 100 | RVQVECEDWNGVELCWPVRV (modifications not checked) [SEQ ID NO 296] |
| < 100 | TDEVSCQEWEGVELCWIERQ (modifications not checked) [SEQ ID NO 303] |
| < 100 | RPQIECQEWQGVELCWTREE (modifications not checked) [SEQ ID NO 287] |
| < 100 | GQGREVVVCHDWYGVELCWQ (modifications not checked) [SEQ ID NO 264] |
| < 100 | RTEVECEDWEGVELCWL (modifications not checked) [SEQ ID NO 322] |
| < 100 | DWRRSVVECQDWYGVELCWQ (modifications not checked) [SEQ ID NO 265] |
| < 100 | ANQNTVVECQDWHGVELCWQ (modifications not checked) [SEQ ID NO 274] |

biological target: T2, hu-IL-7Rγc subunit

| IC50 [µM] | Binder |
| --- | --- |
| < 100 | DVECVDWGGVELCWH (not fully specified (bridges); cysteine pairing not given here, also called Rγc ligand) [SEQ ID NO 255] |
| < 100 | IECDTSYGVYICWQ (not fully specified (bridges); cysteine pairing not given here, also called Rγc ligand) [SEQ ID NO 246] |
| < 100 | LALRKEVVCQEYYGVELCWI (not fully specified (bridges); cysteine pairing not given here, also called Rγc ligand) [SEQ ID NO 250] |
| < 100 | MVNREVVVCEDWYGVELCWQ (not fully specified (bridges); cysteine pairing not given here, also called Rγc ligand) [SEQ ID NO 252] |
| < 100 | GYGVVCEDFRGVELCWLERK (not fully specified (bridges); cysteine pairing not given here, also called Rγc ligand) [SEQ ID NO 321] |
| < 100 | AHSRQEVVCEEWYGVELCWI (not fully specified (bridges); cysteine pairing not given here, also called Rγc ligand) [SEQ ID NO 258] |
| < 100 | ILCEEWQGVELCWLEGGGS (not fully specified (bridges); cysteine pairing not given here, also called Rγc ligand) [SEQ ID NO 323] |
| < 100 | RTGVECQDWHGVELCWPVWE (not fully specified (bridges); cysteine pairing not given here, also called Rγc ligand) [SEQ ID NO 320] |
| < 100 | VGIECEEWAGVELCWL (not fully specified (bridges); cysteine pairing not given here, also called Rγc ligand) [SEQ ID NO 324] |
| < 100 | YSRELYVQCEDWEGVELCWI (not fully specified (bridges); cysteine pairing not given here, also called Rγc ligand) [SEQ ID NO 260] |
